Our source for the co-IP mass spectrometry count values is patent publication US20240261333A1, “NOVEL TARGETS FOR ENHANCING ANTI-TUMOR IMMUNITY” (THE BROAD INSTITUTE, INC., priority 2021, published 2024).

One test concerns the target SEL1L (human) (UniProt Q9UBV2). The experiment in a line: co-IP with anti-FLAG, mass spectrometry; lysate of cells with N-FLAG B3GNT2.
In a further test the target is MSN (human) (UniProt P26038). Described as above.
The next test has as its target ARF4 (human) (UniProt P18085). The description is as above.
Another test addresses RPS27 (human) (UniProt P42677). Described as above.
A further test addresses RPL22 (UniProt P35268). The experiment in a line: co-IP, IgG control, C-FLAG B3GNT2 cell lysate, mass spectrometry.
For a further test, the target named is LIMA1 (UniProt Q9UHB6). The description is as above.
The target in the next test is RPS18 (UniProt P62269). The description is as above.
A further test concerns the target RPL3 (UniProt P39023). The test is described as above.
The target of a further test is POF1B (UniProt Q8WVV4). The test is described as above.
POF1B, sequence (Q8WVV4 other isoform, or with tags, fused parts or gaps limits assumed): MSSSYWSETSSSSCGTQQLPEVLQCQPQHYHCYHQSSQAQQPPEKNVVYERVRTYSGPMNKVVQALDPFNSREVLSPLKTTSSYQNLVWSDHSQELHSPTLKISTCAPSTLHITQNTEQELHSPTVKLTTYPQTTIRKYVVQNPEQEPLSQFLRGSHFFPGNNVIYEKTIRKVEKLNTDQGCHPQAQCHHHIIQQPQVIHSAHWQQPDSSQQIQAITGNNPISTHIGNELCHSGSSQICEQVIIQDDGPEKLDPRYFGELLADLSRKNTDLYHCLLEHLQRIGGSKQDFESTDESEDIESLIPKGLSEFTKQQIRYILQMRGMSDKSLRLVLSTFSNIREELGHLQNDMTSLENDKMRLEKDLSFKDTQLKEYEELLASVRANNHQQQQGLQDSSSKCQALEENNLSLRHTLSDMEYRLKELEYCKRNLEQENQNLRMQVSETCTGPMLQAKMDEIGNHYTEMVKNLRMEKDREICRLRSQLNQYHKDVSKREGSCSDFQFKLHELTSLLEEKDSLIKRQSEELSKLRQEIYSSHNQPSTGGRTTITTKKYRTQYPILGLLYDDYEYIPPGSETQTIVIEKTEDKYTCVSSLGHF
A further test deals with DEFA3 (UniProt P59666). The description is as above.
Another test deals with RPS13 (UniProt P62277). The description is as above.
In another test the target is EMD (UniProt P50402). The test is described as above.
The target in a further test is ARG1 (UniProt P05089). The description is as above.
For the next test, the target named is RPL35 (UniProt P42766). The description is as above.
The next test addresses CFL1 (UniProt P23528). Described as above.
In another test the target is HNRNPU (UniProt Q00839). The test is described as above.
The target in a further test is ITGB3 (UniProt P05106). The test is described as above.
The target in another test is HIST1H1E (UniProt P10412). The description is as above.
HIST1H1E, sequence (P10412 2-219 limits assumed): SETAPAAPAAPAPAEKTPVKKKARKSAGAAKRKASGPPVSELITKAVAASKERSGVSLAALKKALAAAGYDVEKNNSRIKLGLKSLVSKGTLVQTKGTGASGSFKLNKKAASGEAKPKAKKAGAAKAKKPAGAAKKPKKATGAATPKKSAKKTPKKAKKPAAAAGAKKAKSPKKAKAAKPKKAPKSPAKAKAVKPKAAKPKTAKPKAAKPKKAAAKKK
Another test deals with RPL27A (UniProt P46776). The test is described as above.
Another test has as its target DDX20 (UniProt Q9UHI6). The test is described as above.
A further test addresses TNKS1BP1 (UniProt Q9C0C2). Described as above.
For a further test, the target named is RPS23 (UniProt P62266). Described as above.
For the next test, the target named is TAGLN (UniProt Q01995). The description is as above.
The target of the next test is DNAJA2 (UniProt O60884). Described as above.
DNAJA2, sequence (O60884 1-409 limits assumed): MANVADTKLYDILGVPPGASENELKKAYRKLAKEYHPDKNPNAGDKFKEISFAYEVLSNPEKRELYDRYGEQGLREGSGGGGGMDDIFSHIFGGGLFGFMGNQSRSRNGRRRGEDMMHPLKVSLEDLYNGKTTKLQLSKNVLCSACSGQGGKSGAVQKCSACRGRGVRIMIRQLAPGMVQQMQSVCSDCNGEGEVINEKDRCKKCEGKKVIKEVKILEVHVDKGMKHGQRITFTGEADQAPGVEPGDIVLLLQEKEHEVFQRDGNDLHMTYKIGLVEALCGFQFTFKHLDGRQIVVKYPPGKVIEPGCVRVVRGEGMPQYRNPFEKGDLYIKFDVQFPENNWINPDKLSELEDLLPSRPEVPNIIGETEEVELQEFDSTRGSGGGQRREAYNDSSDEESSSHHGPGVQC
For a further test, the target named is SRSF3 (UniProt P84103). Described as above.
Another test deals with RPS16 (UniProt P62249). The test is described as above.
A further test concerns the target TMEM59 (UniProt Q9BXS4). Described as above.
Another test concerns the target RPS8 (UniProt P62241). The description is as above.
In a further test the target is PBXIP1 (UniProt Q96AQ6). The test is described as above.
The target of the next test is CDSN (UniProt Q15517). The description is as above.
A further test addresses SSRP1 (UniProt Q08945). Described as above.
The target in a further test is RPL37A (UniProt P61513). The description is as above.
The target in the next test is RPL19 (UniProt P84098). Described as above.
The target of another test is MTCH2 (UniProt Q9Y6C9). The test is described as above.
The next test deals with RPL5 (UniProt P46777). The test is described as above.
The target of a further test is PSMA7 (UniProt O14818). Described as above.
For another test, the target named is EIF4G1 (UniProt Q04637). Described as above.
For the next test, the target named is TXN (UniProt P10599). Described as above.
The next test concerns the target NCCRP1 (UniProt Q6ZVX7). Described as above.
In the next test the target is RPS2 (UniProt P15880). Described as above.

SSRP1, sequence (Q08945 2-709 limits assumed): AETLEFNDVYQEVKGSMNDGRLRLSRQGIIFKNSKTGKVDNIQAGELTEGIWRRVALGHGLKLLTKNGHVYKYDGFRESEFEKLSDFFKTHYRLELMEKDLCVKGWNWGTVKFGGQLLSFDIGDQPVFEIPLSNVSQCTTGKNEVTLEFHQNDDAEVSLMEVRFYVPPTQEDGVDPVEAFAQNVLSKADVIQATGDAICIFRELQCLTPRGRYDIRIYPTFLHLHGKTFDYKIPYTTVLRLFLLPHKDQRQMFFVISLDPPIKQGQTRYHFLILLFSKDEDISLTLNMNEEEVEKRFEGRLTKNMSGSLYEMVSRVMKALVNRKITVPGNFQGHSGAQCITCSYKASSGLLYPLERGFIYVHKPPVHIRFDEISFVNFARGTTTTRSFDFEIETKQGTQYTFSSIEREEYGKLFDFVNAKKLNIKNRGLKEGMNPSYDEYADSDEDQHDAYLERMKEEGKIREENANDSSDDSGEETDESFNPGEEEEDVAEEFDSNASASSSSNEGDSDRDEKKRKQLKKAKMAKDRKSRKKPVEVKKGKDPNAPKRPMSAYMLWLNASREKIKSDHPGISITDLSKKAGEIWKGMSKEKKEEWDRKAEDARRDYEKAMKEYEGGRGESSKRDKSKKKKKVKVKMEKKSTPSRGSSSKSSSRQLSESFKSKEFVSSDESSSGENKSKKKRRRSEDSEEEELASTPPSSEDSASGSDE
MSN (human), sequence (P26038 2-577 limits assumed): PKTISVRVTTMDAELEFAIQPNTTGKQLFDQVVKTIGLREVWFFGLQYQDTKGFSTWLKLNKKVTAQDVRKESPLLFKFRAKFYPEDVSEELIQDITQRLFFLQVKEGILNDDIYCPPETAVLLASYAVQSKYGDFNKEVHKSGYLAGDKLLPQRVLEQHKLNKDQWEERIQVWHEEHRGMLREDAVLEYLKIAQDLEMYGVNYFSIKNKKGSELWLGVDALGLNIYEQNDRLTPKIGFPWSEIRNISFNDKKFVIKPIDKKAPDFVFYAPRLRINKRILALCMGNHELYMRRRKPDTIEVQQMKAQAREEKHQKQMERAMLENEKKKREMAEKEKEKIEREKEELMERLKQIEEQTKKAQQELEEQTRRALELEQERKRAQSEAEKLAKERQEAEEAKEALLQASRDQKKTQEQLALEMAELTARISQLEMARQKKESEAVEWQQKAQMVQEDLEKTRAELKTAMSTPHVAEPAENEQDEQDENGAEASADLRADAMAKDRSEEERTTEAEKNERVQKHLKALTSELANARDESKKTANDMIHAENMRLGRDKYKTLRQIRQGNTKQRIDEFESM
DDX20, sequence (Q9UHI6 whole entry): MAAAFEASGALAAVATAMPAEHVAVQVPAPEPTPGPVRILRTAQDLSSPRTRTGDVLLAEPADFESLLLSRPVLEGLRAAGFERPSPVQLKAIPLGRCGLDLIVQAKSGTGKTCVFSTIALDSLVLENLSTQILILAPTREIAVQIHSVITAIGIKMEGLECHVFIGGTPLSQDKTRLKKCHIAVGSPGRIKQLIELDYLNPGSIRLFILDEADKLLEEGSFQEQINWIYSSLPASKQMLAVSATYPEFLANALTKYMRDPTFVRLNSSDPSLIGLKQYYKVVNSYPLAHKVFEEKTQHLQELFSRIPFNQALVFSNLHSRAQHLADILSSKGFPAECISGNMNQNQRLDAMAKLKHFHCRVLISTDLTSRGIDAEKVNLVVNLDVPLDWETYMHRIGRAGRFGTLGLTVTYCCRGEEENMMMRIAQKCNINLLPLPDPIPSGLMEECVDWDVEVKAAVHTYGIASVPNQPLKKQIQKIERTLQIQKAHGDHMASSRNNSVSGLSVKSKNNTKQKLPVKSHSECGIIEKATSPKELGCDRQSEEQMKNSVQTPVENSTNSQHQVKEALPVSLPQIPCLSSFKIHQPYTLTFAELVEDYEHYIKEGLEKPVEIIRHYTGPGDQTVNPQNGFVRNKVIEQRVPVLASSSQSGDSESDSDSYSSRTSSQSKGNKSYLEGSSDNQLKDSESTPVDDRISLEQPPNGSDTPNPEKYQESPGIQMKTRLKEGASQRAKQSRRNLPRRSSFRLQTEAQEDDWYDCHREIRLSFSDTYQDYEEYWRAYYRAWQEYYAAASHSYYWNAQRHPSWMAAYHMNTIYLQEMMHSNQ
TNKS1BP1, sequence (Q9C0C2 whole entry): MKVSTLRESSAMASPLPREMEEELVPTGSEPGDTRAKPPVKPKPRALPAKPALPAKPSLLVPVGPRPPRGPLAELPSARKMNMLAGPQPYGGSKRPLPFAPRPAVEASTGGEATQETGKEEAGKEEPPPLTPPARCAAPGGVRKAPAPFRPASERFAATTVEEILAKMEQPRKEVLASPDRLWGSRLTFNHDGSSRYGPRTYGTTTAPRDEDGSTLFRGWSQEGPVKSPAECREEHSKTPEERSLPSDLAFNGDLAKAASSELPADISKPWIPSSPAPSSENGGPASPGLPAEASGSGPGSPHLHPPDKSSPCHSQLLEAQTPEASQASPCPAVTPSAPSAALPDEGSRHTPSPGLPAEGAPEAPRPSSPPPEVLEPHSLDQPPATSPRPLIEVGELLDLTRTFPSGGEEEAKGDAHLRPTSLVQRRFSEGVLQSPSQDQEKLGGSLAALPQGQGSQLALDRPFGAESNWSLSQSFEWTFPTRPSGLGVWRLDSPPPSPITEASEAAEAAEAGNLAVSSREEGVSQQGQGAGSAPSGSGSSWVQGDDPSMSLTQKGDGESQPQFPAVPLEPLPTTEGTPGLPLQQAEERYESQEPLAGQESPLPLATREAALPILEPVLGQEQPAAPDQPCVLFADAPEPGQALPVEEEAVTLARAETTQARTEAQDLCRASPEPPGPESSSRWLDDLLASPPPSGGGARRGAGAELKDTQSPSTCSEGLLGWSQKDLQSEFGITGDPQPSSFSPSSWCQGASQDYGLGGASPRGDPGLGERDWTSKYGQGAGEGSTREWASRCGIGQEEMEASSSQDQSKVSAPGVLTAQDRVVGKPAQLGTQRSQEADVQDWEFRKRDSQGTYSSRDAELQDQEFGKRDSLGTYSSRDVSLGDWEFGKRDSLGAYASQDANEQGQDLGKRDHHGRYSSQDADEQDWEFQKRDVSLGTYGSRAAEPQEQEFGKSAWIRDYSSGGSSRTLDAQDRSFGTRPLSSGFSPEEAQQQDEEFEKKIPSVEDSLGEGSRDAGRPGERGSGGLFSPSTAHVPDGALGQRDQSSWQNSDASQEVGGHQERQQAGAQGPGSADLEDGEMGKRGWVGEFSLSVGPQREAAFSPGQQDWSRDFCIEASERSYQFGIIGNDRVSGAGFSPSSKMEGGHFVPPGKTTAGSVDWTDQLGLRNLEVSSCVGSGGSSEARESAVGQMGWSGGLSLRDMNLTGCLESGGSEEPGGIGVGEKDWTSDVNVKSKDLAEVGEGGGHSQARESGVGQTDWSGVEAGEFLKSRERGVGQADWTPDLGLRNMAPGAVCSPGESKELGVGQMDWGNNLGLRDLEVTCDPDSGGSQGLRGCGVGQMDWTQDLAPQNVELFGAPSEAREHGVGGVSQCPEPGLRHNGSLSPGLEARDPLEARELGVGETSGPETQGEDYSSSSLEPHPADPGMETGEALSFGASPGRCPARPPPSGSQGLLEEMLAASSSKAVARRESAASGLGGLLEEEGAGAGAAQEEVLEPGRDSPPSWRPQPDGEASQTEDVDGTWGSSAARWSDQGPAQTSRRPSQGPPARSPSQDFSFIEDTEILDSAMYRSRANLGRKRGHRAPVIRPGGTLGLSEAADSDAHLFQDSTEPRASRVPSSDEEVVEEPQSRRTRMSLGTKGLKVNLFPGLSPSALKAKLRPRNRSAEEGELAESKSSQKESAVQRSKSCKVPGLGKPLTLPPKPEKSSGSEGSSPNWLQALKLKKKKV

Regarding “N-terminal FLAG tagged B3GNT2 (from UniProt Q9NY97 1-397) (enzyme)”, the co-IP mass spectrometry count in the test with SEL1L (human) is 3; with MSN (human), 3; in the test with ARF4 (human), 4; in the test with RPS27 (human), 2.

Regarding “IgG control (Millipore Sigma 12-371) (antibody)”, the co-IP mass spectrometry count in the test with RPL22 worked out at 0; with LIMA1, 0; with RPS18, 9; in the test with RPL3, 5; with POF1B, 0; with DEFA3, 5. Also, the co-IP mass spectrometry count in the test with RPS13 worked out at 2; with EMD, 2; in the test with ARG1 it was 4; with RPL35, 0; with CFL1, 3; with HNRNPU it was 0. The co-IP mass spectrometry count with ITGB3 was 0; with HIST1H1E it was 0; with RPL27A, 0; with DDX20, 0; with TNKS1BP1, 2; with RPS23, 9. For the same substance, the co-IP mass spectrometry count in the test with TAGLN was 0; with DNAJA2, 0; with SRSF3 it was 3; in the test with RPS16, 8; in the test with TMEM59, 0; with RPS8, 6. Moreover, the co-IP mass spectrometry count with PBXIP1 stood at 0; in the test with CDSN, 0; with SSRP1, 0; with RPL37A it was 3; with RPL19, 2; with MTCH2 it was 0. The co-IP mass spectrometry count with RPL5 turned out to be 0; with PSMA7 it was 0; in the test with EIF4G1, 2; with TXN, 0; with NCCRP1, 0; with RPS2 it was 12.
